“Also recorded” adds a separate entry of the source. Blank lines part the entries; values can stand above or below the molecule they belong to.
Legend:
[1] = system: p42/p44 MAP kinases; assay: p42/p44 MAP kinase phosphorylation in embryonic cardiomyocytes (immunoblot); type: cell-based, mouse
Method: (§1) Mouse embryos (E11.5-12.5) were used to prepare primary cardiac myocytes. Heart tissue was isolated aseptically from embryos. Myocardial cells were isolated by collagenase digestion and separated from non cardiomyocytes by preattachments on culture dishes that was performed three times. Cells were then cultured as described previously. Using this method, it was routinely possible to obtain primary cultures with >90% myocytes.
(§2) Embryonic myocardial cells were cultured in serum-free medium for at least 24 hrs and then stimulated with rhNRGβ2 or IGF-I for various times. Stimulation was terminated by washing cells rapidly with cold PBS. To block the MAP kinase activation, the MEK inhibitor, PD98059, was added to the medium 30 mins prior to the administration of rhNRGβ2 or IGF-I. Cells were then harvested as previously described for Western blot analysis with HRPO-conjugated monoclonal antibody RC20H (1:2,000) for detection of phosphorylated ErbB receptors, or a phospho-specific p42/p44 MAP kinase antibody (dilution ratio 1:1,000) for detection of phosphorylated MAP kinases. The same amount of cell extract protein was loaded into each lane and separated by SDS-PAGE. Immunobloting with an anti-ErbB receptor or anti-p42/44 MAP kinase antibodies was also used to normalise for protein loading. MAP-kinase (p42/p44) activity was measured using a p42/44 MAP kinase enzyme assay kit (RPN84; Amersham, Bucks, U.K.) according to the manufacturer's instructions.

[2] = system: E12.5 mouse cardiac muscle cells; assay: Sarcomeric and cytoskeletal structure of embryonic mouse cardiac muscle cells (phalloidin and anti-α-actinin staining); type: cell-based; details: for sarcomeric actin reorganisation and contractile unit assembly: 48 hrs, serum-free
Method: as §1
(§3) Myocardial cells were plated in 2-well Novex plates (Nunc), and cultured with or without rhNRGβ2 in serum-free DMEM medium for 24-48 hour. After rinsing the cells with PBS, they were fixed with 4% paraformaldehyde and 0.1% Triton X-100 at room temperature for 30 minutes. The fixed cells were then blocked with 5% skim milk in PBS for 1 hr, followed by incubation with an anti-α-actinin monoclonal antibody (Sigma), for 45 minutes at room temperature. After washing, anti-mouse IgG conjugated with FITC (Sigma) was added and the cells were incubated for another half hour. For phalloidin staining, cells were fixed with 4% formadehyde for 1 hr, washed, and stained with phalloidin buffer (100 μl PBS, 10 μl rhodarmine phalloidin (6.6 μM in MeOH)) for 1 hr. After PBS washing, cells were mounted with 1% p-phenylenediamine (1 mg/ml, Sigma) in glycerol, and then covered and sealed. Cells were examined using a UV fluorescent microscope and photographed with a 40× power objective.

[3] = system: p21^CIP1; assay: p21^CIP1 protein expression in embryonic cardiac muscle cells (immunoblot); type: cell-based, mouse
Method: as §1
Embryonic myocardial cells cultured in serum-free or 5% FBS medium were stimulated with various concentrations of rhNRGβ2 with or without the MEK inhibitor, PD98059, for 24 or 48 hrs, harvested as described above and subjected to immunoblot analysis using an anti-p21^CIP1 antibody (1:100). The same amount of protein was loaded into each well of a SDS polyacrylamide gel. After immunoblotting, the membrane was stripped and probed further with an antibody to the ErbB2 receptor for normalisation of protein loading.

[4] = system: neonatal rat cardiac muscle cells; assay: Sarcomeric and cytoskeleton structures and MHC-α expression of cultured neonatal rat cardiac muscle cells; type: cell-based; details: for sarcomeric and cytoskeleton structures, cell-cell adhesions: single agent, Phalloidin and anti-α-actinin staining
Method: By using primary cultured myocardial cells as a model system, the present inventor evaluated neuregulin signalling in cardiac myocyte differentiation, maturation and assembly or maintenance of sarcomeric and cytoskeleton structures. To assay the neuregulin effect on cell signalling, embryonic cardiac muscle cells were incubated with recombinantly purified human neuregulin ligand (rhNRGβ2). […] Such an effect was not found from the cells stimulated with either insulin IGF-1 or PE. […] These findings indicate that NRG function through two distinct pathways: one activated at lower ligand concentrations results in cardiomyocyte growth, whereas the other, activated with higher concentrations, is mediated by sustained activation of the MAP kinase pathway and results in terminal differentiation and maturation.
as §3

[5] = system: ventricular muscle cells; details: cited from earlier work; for hypertrophy score (maximal increase in cell size): scale 7 to 0, 3 = non-stimulated cells, 7 = fully hypertrophied
[6] = system: embryonic mouse cardiomyocytes; assay: DNA synthesis ([3H] thymidine incorporation) in cultured embryonic mouse cardiomyocytes; type: cell-based; details: for effect on IGF-I (10^−9M)-stimulated DNA synthesis: 20 hrs
Method: as §1
Embryonic myocardial cells were cultured with rhNRGβ2 or IGF-I containing serum-free DMEM for 20 hrs. [methyl-^3H] Thymidine (0.5 μCi/well) was added and cells were then cultured for a further 12 hrs. After rinsing twice with cold PBS, once with ice-cold 10% trichloroacetic acid, and then five times with ice-cold PBS, the cells were dissolved in 100 μl of 1% SDS, and counted in a liquid scintillation counter.
(§4) All of the above assays were repeated at least three times for each experiments. Data for DNA synthesis and MAP kinase activity are presented as the mean±S.E of five replicate samples. Statistical significance was determined by ANOVA using the SAS statistical package with P<0.05 being considered significant. Immunoblots were quantitated by densitometry analysis with the intensity of the evaluated protein bands being shown below the blots as the fold changes over control (see FIGs).

[7] = system: sarcomeric myosin heavy chains; assay: Sarcomeric myosin heavy chain and sarcomeric actin expression in embryonic mouse cardiac muscle cells (immunoblot); type: cell-based; details: rhNRGβ2-stimulated
Method: FIGS. 6A-6B. Effects of NRG on cardiac sarcomere assembly and myosin heavy chains expression. FIG. 6A. E12.5 mouse cardiac muscle cells were cultured in serum-free medium (control) or stimulated with 10^−10 or 10^−8M rhNRGβ2 (NRG) for 48 hrs. Cells were then stained with phalloidin (left panels) or evaluated for anti-α-actinin immunoflorescency (right panels). FIG. 6B. Sarcomeric myosin heavy chain α-actin expression rhNRGβ2-stimulated embryonic mouse cardiac muscle cells were evaluated by immunoblot analysis using an anti-sarcomeric myosin heavy chain antibody (MF20) or an anti-α-actinin antibody. The same amount of whole cell extracts (20 μg proteins) was loaded into each lane for SDS-PAGE fractionation.
as §1

[8] = system: p42/p44 MAP kinases; assay: MAP kinase catalytic activity in extracts of treated cardiomyocytes (p42/44 MAP kinase enzyme assay kit); type: cell-based, mouse
Method: as §1
Embryonic myocardial cells were cultured in serum-free medium for at least 24 hrs and then stimulated with rhNRGβ2 or IGF-I for various times. Stimulation was terminated by washing cells rapidly with cold PBS. […] MAP-kinase (p42/p44) activity was measured using a p42/44 MAP kinase enzyme assay kit (RPN84; Amersham, Bucks, U.K.) according to the manufacturer's instructions.
as §4, with “Data for DNA synthesis and MAP kinase activity are presented as the mean±S.E of five replicate samples.” left out

[9] = biological target: T1, ErbB2 and ErbB4 receptors (Mus musculus, UniProt Q61527); assay: ErbB receptor phosphorylation in embryonic cardiomyocytes (Western blot / immunoprecipitation); type: cell-based
T1 construct: ErbB2 and ErbB4 are most abundantly expressed in cardiac myocytes; endogenous in cells; host or cells: primary embryonic (E11.5-12.5) mouse cardiac myocytes
T1 sequence (Q61527 26-1308): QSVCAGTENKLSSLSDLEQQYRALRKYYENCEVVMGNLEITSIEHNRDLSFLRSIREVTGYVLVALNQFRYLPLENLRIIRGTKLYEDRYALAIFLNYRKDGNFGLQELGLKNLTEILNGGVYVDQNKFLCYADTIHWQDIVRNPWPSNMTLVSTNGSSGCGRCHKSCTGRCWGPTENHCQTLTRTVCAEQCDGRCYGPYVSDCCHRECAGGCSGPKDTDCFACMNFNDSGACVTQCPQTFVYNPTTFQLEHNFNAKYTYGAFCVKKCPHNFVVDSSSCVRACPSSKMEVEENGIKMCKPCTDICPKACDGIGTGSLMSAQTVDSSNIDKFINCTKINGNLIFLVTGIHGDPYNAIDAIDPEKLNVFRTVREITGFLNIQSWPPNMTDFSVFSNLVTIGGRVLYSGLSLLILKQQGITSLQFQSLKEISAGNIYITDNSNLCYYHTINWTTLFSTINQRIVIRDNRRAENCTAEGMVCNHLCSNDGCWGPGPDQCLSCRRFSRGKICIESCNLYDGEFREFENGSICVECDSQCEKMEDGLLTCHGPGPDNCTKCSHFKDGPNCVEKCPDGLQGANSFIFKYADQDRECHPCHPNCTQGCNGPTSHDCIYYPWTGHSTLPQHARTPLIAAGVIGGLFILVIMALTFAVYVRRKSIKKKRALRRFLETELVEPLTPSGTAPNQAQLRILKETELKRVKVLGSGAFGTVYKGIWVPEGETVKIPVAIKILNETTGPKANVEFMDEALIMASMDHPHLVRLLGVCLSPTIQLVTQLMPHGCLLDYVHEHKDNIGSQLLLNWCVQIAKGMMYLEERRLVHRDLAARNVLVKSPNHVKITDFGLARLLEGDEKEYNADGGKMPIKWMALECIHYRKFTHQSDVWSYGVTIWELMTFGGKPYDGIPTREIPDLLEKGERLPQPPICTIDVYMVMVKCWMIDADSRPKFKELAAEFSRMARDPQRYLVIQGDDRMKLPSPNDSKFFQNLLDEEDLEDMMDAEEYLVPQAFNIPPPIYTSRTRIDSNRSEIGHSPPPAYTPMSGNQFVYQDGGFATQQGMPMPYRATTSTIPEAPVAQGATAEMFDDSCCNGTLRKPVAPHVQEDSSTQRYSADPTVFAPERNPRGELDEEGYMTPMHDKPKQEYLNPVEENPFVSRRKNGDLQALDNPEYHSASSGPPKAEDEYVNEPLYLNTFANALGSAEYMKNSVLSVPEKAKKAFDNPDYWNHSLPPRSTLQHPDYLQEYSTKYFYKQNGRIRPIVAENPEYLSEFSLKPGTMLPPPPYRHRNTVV
T1 sequence (P70424 23-1256 partner): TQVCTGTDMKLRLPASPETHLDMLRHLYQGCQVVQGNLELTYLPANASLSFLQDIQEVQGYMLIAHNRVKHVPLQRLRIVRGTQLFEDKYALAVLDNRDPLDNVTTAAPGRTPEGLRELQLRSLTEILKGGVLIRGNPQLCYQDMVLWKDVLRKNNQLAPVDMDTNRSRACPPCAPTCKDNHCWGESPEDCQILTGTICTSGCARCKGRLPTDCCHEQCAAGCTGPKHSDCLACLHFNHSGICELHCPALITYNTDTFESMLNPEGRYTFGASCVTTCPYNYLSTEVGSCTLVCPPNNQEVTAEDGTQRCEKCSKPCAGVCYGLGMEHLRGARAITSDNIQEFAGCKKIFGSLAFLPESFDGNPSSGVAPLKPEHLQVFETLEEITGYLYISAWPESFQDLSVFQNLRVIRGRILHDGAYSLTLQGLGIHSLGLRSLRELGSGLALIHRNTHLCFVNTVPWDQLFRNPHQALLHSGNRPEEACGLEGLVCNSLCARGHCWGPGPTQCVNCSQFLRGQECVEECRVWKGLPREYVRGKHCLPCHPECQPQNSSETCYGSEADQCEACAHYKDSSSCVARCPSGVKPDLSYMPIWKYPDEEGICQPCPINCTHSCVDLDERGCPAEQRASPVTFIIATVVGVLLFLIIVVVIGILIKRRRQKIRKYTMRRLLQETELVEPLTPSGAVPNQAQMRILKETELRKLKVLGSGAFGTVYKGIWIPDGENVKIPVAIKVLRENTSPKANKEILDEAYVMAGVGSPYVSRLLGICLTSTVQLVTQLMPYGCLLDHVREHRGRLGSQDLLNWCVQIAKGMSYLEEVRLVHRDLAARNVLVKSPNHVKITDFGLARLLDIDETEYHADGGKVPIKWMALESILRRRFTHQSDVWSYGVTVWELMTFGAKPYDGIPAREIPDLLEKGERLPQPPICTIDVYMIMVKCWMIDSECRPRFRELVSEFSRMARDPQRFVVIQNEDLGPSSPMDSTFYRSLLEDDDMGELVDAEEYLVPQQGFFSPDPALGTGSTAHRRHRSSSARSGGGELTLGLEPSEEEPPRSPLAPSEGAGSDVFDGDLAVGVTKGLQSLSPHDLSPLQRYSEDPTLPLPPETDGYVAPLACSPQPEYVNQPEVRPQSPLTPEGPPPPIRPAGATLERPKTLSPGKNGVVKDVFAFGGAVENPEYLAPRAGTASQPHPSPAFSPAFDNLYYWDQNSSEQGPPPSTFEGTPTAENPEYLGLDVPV
Method: as §1
as §2, with “Immunobloting with an anti-ErbB receptor or anti-p42/44 MAP kinase antibodies was also used to normalise for protein loading.” left out

[10] = system: MCF-7 breast cancer cell ErbB receptors; assay: Stimulation of MCF-7 breast cancer cell ErbB receptors (activity check of purified protein); type: cell-based; details: ligand 10^−12M to 10^−8M, MCF-7 cells
From the text: A cDNA encoding the EGF-like domain of human NRGβ2 isoform (rhNRGβ2, residues 177-237, was inserted into the pFLAG1 expression vector (IBI) (a gift from Dr. Rodney J. Fiddes, Co-operative Research Centre for Biopharmaceutical Research, Australia). rhNRGβ2 with a FLAG-peptide attached at its N-terminus, was expressed in the periplasmic space of E. coli DH5α, and purified by affinity chromatography using anti-FLAG M1 monoclonal antibody according to the manufacturer's instructions. The purity of rhNRGβ2 was more than 90% as evidenced by SDS-PAGE separation and Coomassie Blue staining of purified protein samples. The concentration of purified proteins was determined using a Bio-Rad protein assay kit. Activity of the purified proteins was assayed by stimulation of MCF-7 breast cancer cell ErbB receptors with various ligand doses.

Molecule: COc1cccc(-c2cc(=O)c3ccccc3o2)c1N [PD98059, reference compound]
- effect on NRG-induced increase in p42/44 MAP kinase phosphorylation ([1]; PD98059 added 30 mins before, cells stimulated 5 min): blocked
- sensitivity of rhNRGβ2 effects on cardiomyocytes to MEK1 inhibition ([2]; PD98059): sensitive to MEK1 inhibition
- effect on p21^CIP1 expression induced by 10^−8M rhNRGβ2 ([3]; PD98059 50 μM, presence or absence of serum): blocked the increase in p21^CIP1 expression

Molecule: CNC[C@H](O)c1cccc(O)c1 [PE, phenylephrine]
- sarcomeric and cytoskeleton structures, cell-cell adhesions [4]: not found
- surface area/cell of fully hypertrophied cells ([5]; non-exposed cells 581 μm^2): 1811 μm^2
- hypertrophy score (maximal increase in cell size) [5]: 7

Molecule: CC[C@H](C)[C@H](NC(=O)[C@H](CC(=O)O)NC(=O)[C@H](CC(C)C)NC(=O)[C@H](Cc1c[nH]cn1)NC(=O)[C@@H]1CSSC[C@H](N)C(=O)N[C@@H](CO)C(=O)N[C@H]2CSSC[C@H](NC(=O)[C@H](CCC(=O)O)NC(=O)[C@H](CCCCN)NC(=O)[C@H](CC(=O)O)NC(=O)[C@H](CCSC)NC(=O)[C@H](CC(C)C)NC(=O)[C@H](CO)NC(=O)[C@H](CO)NC2=O)C(=O)N[C@@H](C(C)C)C(=O)N[C@@H](Cc2ccc(O)cc2)C(=O)N[C@@H](Cc2ccccc2)C(=O)N1)C(=O)N[C@H](C(=O)N[C@@H](Cc1c[nH]c2ccccc12)C(=O)O)[C@@H](C)CC [endothelin]
- hypertrophy score (maximal increase in cell size) [5]: ~5

More lines, main results first:

- MAP kinase phosphorylation time course ([1]; IGF-I low (10^−9M) and high (10^−8M or 10^−7M) concentrations): transient
Molecule: IGF-I: recombinant human insulin-like growth factor I, commercially obtained (Boehringer)
- sarcomeric and cytoskeleton structures, cell-cell adhesions [4]: not found
- p21^CIP1 expression ([3]; IGF-I 10^−10M or 10^−8M): did not stimulate p21^CP1 expression
- DNA synthesis response ([6]; concentrations ranging from 10^−11M to 10^−7M): only a proliferative response

- duration of p42/p44 MAP kinase phosphorylation ([1]; 10^−8M (higher dose)): at least 21 hours
- MAP kinase activation (phosphorylation) time course ([1]; 10^−10M (lower ligand concentration), fell to basal level in less than three hours): only transient activation
- MAP kinase phosphorylation time course ([1]; combination of IGF-I (10^−9M) and rhNRGβ2 (10^−8M)): sustained MAP kinase phosphorylation
- phosphorylation of immunoprecipitated ErbB2 and ErbB4 ([9]; 5 min stimulation, 10^−10M or 10^−8M): dependent on rhNRβ2 concentrations
B1: rhNRGβ2: EGF-like domain of human NRGβ2 isoform, residues 177-237 (SEQ ID NO: 2), FLAG-peptide at N-terminus, expressed in E. coli DH5α (protein, listed as Homo sapiens)
chain: {FLAG}-SHLVKCAEKEKTFCVNGGECFMVKDLSNPSRYLCKCPNEFTGDRCQNYVMASFYKAEELYQ
modifications: also: recombinant protein expressed in E. coli
- improvement of sarcomeres and cell-cell adhesions ([4]; 10^−8M concentration): maximal effect
- cell structures when mixed with either IGF-1 or PE ([4]; rhNRGβ2 mixed with IGF-1 or PE): improved the cell structures
- sarcomeric and cytoskeleton structures, cell-cell adhesions [4]: dramatically improved sarcomeric and cytoskeleton structures, as well as cell-cell adhesions
- MHC-α expression under PE stimulation ([4]; with PE): overrode the negative regulation of MHC-α expression
- expression of sarcomeric myosin heavy chains ([7]; MF20 immunoblot): enhanced expression of sarcomeric myosin heavy chains
- sarcomeric actin expression ([7]; immunoblot): remained unchanged
- sarcomeric actin reorganisation and contractile unit assembly ([2]; 10^−8M): stimulated both sarcomeric actin reorganisation (phalloidin staining) and cardiac contractile unit assembly
- sarcomeric actin reorganisation and contractile unit assembly ([2]; 10^−10M): much less evident
- duration of MAP kinase catalytic activity ([8]; 10^−8M): at least 21 hours
- MAP kinase catalytic activity time course ([8]; 10^−10M): only transient
- duration of enhanced p21^CIP1 expression ([3]; 10^−8M): at least 24 hours
- p21^CIP1 expression ([3]; 10^−8M (higher concentration), serum-free or 5% FBS, 24 hrs): increase in p21^CIP1 expression; also recorded: enhanced
- effect on IGF-I (10^−9M)-stimulated DNA synthesis ([6]; 10^−8M NRG): significantly blocked the IGF-I response
- effect on IGF-I (10^−9M)-stimulated DNA synthesis ([6]; 10^−10M NRG): little effect
- DNA synthesis response versus control (vehicle) ([6]; all concentrations except 10^−7M, P<0.001, 20 hr): significantly greater than control
- DNA synthesis ([6]; ligand concentrations >10^−10M): decreased
- increase in DNA synthesis ([6]; rhNRGβ2 at 10^−10, 20 hr treatment, embryonic mouse cardiomyocytes (E11.5-12.5)): approximately 2 fold
- phosphorylation of 180-185 kDa proteins corresponding to ErbB2/ErbB4 receptors ([9]; 10^−8M compared with 10^−10M, cell lysates): a higher level of phosphorylated 180-185 kDa proteins
- ErbB receptor phosphorylation [10]: increased ErbB receptor phosphorylation with increasing ligand concentration

From patent US20170189489A1, “CARDIAC MUSCLE FUNCTION AND MANIPULATION” (Zensun (Shanghai) Science & Technology, Co., Ltd., priority 1998, published 2017)
